Reference: paper PMC9482650, “Quantitative fragmentomics allow affinity mapping of interactomes” (Nature Communications, 2022)
Blank lines part the entries; values can stand above or below the binder they belong to.

How the values were obtained:
Test in all cases: holdup assay
Set-up in all cases: key: below the threshold = too weak to quantify, mostly under pKd 3.1 to 4
[1] = molecular target: T1, HTRA4, P83105
T1 sequence (P83105 378-476, limits assumed, looked up): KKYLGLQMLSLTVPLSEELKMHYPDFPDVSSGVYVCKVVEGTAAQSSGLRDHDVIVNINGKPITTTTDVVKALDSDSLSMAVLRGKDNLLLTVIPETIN

[2] = molecular target: PDZRN4_1, Q6ZMN7
[3] = molecular target: Inadl_9, Q8NI35
[4] = molecular target: Inadl_10, Q8NI35
[5] = molecular target: T2, FRMPD1, Q5SYB0
T2 sequence (Q5SYB0 52-145, limits assumed, looked up): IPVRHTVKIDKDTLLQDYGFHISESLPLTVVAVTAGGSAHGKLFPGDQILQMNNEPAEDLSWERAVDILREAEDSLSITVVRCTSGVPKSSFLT

[6] = molecular target: T3, MPP6, Q9NZW5
T3 sequence (Q9NZW5 125-219, limits assumed, looked up): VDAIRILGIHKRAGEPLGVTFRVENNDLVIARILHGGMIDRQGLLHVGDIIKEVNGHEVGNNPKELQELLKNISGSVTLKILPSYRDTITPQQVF

[7] = molecular target: IL16_4, Q14005
[8] = molecular target: MAGI2_3, Q86UL8
[9] = molecular target: FRMPD4, Q14CM0
[10] = molecular target: MAGI2_2, Q86UL8
[11] = molecular target: T4, PDZD7_3, Q9H5P4
T4 sequence (Q9H5P4 857-944, limits assumed, looked up): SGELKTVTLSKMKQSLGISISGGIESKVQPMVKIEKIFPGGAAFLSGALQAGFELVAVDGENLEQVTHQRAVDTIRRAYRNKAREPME

[12] = molecular target: T5, APBA1_2, Q02410
T5 sequence (Q02410 742-832, limits assumed, looked up): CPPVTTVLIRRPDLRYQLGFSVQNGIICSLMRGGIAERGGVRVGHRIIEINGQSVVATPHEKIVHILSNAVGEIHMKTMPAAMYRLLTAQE

[13] = molecular target: T6, DLG3_3, Q92796
T6 sequence (Q92796 374-475, limits assumed, looked up): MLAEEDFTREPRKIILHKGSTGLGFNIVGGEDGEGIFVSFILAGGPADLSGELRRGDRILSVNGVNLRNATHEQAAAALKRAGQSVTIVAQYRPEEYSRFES

[14] = molecular target: LAP2, Q96RT1
[15] = molecular target: NHERF4_2, Q86UT5
[16] = molecular target: HTRA2, O43464
[17] = molecular target: NHERF2_2, Q15599
[18] = molecular target: DLG2_2, Q15700
[19] = molecular target: T7, CARD11, Q9BXL7
T7 sequence (Q9BXL7 662-765, limits assumed, looked up): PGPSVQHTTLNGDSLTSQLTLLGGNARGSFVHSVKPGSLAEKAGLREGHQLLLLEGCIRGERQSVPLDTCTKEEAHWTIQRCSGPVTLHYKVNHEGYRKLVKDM

[20] = molecular target: Inadl_8, Q8NI35
[21] = molecular target: T8, NHERF3_3, Q5T2W1
T8 sequence (Q5T2W1 238-333, limits assumed, looked up): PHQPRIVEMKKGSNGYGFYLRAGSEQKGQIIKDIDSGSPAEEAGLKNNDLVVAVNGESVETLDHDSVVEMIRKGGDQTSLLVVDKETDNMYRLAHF

[22] = molecular target: GRASP, Q7Z6J2
[23] = molecular target: T9, RHPN1, Q8TCX5
T9 sequence (Q8TCX5 508-602, limits assumed, looked up): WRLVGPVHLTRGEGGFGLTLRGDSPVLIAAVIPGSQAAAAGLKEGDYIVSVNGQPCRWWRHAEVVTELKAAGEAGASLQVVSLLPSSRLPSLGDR

[24] = molecular target: T10, NHERF3_4, Q5T2W1
T10 sequence (Q5T2W1 373-468, limits assumed, looked up): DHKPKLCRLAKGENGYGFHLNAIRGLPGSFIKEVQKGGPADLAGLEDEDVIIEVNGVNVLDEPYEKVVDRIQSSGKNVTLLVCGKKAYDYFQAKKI

[25] = molecular target: T11, DVL3, Q92997
T11 sequence (Q92997 244-331, limits assumed, looked up): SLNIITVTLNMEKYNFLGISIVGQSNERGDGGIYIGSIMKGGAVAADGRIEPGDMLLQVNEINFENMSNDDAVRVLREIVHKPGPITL

[26] = molecular target: T12, PDZD2_2, O15018
T12 sequence (O15018 329-429, limits assumed, looked up): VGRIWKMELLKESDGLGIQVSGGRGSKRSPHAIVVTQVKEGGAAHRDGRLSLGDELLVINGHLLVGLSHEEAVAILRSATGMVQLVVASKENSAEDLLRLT

[27] = plain residues with an end cap or a label only (N-terminal biotin on a linker: ttds)
[28] = plain residues with an end cap or a label only (N-terminal biotin on a linker: ahx)
[29] = plain residues with an end cap or a label only (N-terminal biotin on a linker: ado-ado)

Chain of MAGI2_3, Q86UL8 (Q86UL8 600-682): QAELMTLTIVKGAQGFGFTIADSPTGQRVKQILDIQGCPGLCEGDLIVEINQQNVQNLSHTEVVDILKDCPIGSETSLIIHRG
Chain of GRASP, Q7Z6J2 (Q7Z6J2 96-193): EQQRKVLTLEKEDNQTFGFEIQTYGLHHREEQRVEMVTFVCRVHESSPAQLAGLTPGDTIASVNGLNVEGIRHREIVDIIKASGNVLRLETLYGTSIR
Chain of Inadl_9, Q8NI35 (Q8NI35 1530-1615): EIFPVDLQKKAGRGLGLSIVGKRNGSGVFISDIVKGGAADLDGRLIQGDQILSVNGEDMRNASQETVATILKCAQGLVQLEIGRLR
Chain of PDZRN4_1, Q6ZMN7 (Q6ZMN7 213-318): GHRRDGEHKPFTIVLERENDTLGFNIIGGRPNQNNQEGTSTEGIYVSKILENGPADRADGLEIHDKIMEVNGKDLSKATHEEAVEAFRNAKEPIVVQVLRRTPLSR
Chain of NHERF4_2, Q86UT5 (Q86UT5 220-308): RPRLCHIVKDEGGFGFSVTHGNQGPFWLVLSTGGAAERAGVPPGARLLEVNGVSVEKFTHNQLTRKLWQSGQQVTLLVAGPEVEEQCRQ
Chain of LAP2, Q96RT1 (Q96RT1 other isoform, or with tags, fused parts or gaps): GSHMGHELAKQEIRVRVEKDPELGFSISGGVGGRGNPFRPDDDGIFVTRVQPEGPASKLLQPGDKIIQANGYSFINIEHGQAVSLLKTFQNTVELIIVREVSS
Chain of DLG2_2, Q15700 (Q15700 189-283): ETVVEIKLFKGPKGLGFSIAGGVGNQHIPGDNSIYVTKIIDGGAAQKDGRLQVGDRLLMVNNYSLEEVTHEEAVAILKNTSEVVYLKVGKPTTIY
Chain of MAGI2_2, Q86UL8 (Q86UL8 410-522): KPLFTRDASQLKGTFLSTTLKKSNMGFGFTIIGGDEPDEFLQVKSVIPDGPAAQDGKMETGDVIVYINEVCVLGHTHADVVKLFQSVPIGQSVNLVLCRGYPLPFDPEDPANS
Chain of Inadl_8, Q8NI35 (Q8NI35 1425-1530): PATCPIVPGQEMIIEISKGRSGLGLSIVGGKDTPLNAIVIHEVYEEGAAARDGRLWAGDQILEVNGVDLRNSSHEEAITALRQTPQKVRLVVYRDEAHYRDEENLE
Chain of Inadl_10, Q8NI35 (Q8NI35 1673-1763): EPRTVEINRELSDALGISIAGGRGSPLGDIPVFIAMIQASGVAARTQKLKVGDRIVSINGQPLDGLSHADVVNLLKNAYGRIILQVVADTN
Chain of HTRA2, O43464 (O43464 355-458): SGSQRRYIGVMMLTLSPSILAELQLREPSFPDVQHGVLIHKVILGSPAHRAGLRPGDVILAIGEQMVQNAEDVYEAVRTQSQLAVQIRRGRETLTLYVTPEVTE
Chain of IL16_4, Q14005 (Q14005 1229-1329): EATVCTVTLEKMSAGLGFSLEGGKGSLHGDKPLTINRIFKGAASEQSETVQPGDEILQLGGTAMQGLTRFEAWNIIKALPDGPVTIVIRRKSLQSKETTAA
Chain of NHERF2_2, Q15599 (Q15599 142-238): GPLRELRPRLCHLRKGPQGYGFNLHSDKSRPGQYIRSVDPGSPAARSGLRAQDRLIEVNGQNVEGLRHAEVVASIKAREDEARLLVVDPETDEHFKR
Chain of FRMPD4, Q14CM0 (Q14CM0 67-160): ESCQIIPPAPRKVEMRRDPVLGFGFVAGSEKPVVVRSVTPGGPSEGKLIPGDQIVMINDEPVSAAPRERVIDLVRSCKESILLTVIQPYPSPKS

Binder: IGHEDLETAV [DGKI, O75912]
pKd [1, 29]: below the threshold
pKd [2, 29]: 4.7
pKd [3, 29]: 3.49
pKd [4, 29]: below the threshold
pKd [5, 29]: below the threshold
pKd [6, 29]: below the threshold
pKd [7, 29]: 3.52
pKd [8, 29]: 4.61
pKd [9, 29]: 3.9
pKd [10, 29]: 3.74
pKd [11, 29]: 4.59
pKd [12, 29]: 4.03
pKd [13, 29]: 4.02
pKd [14, 29]: 4.56
pKd [15, 29]: below the threshold
pKd [16, 29]: below the threshold
pKd [17, 29]: 4.12
pKd [18, 29]: 4.71
pKd [19, 29]: below the threshold
pKd [20, 29]: below the threshold
pKd [21, 29]: below the threshold
pKd [22, 29]: 3.57
pKd [23, 29]: 4.77
pKd [24, 29]: below the threshold
pKd [25, 29]: below the threshold
pKd [26, 29]: 5.25

Binder: SQDPKKPSRV [CBY2, Q8NA61]
pKd [1, 29]: 3.9
pKd [2, 29]: below the threshold
pKd [3, 29]: 4.08
pKd [4, 29]: below the threshold
pKd [5, 29]: below the threshold
pKd [6, 29]: 3.89
pKd [7, 29]: below the threshold
pKd [8, 29]: below the threshold
pKd [9, 29]: below the threshold
pKd [10, 29]: 4.38
pKd [11, 29]: below the threshold
pKd [12, 29]: 3.97
pKd [13, 29]: below the threshold
pKd [14, 29]: below the threshold
pKd [15, 29]: below the threshold
pKd [16, 29]: below the threshold
pKd [17, 29]: below the threshold
pKd [18, 29]: below the threshold
pKd [19, 29]: below the threshold
pKd [20, 29]: 4.43
pKd [21, 29]: below the threshold
pKd [22, 29]: below the threshold
pKd [23, 29]: below the threshold
pKd [24, 29]: below the threshold
pKd [25, 29]: below the threshold
pKd [26, 29]: below the threshold

Second part, the binder after the results:

pKd [1, 27]: below the threshold
pKd [2, 27]: below the threshold
pKd [3, 27]: below the threshold
pKd [4, 27]: below the threshold
pKd [5, 27]: below the threshold
pKd [6, 27]: below the threshold
pKd [7, 27]: below the threshold
pKd [8, 27]: below the threshold
pKd [9, 27]: 4.7
pKd [10, 27]: below the threshold
pKd [11, 27]: 3.59
pKd [12, 27]: below the threshold
pKd [13, 27]: below the threshold
pKd [14, 27]: below the threshold
pKd [15, 27]: below the threshold
pKd [16, 27]: 3.52
pKd [17, 27]: 5.39
pKd [18, 27]: below the threshold
pKd [19, 27]: below the threshold
pKd [20, 27]: below the threshold
pKd [21, 27]: below the threshold
pKd [22, 27]: below the threshold
pKd [23, 27]: 4.1
pKd [24, 27]: below the threshold
pKd [25, 27]: below the threshold
pKd [26, 27]: 4
Binder: DLDEEEDTHL [PODXL, O00592]

pKd [1, 28]: below the threshold
pKd [2, 28]: below the threshold
pKd [3, 28]: 3.57
pKd [4, 28]: 3.62
pKd [5, 28]: below the threshold
pKd [6, 28]: below the threshold
pKd [7, 28]: below the threshold
pKd [8, 28]: below the threshold
pKd [9, 28]: below the threshold
pKd [10, 28]: 3.48
pKd [11, 28]: 3.87
pKd [12, 28]: below the threshold
pKd [13, 28]: 3.68
pKd [14, 28]: below the threshold
pKd [15, 28]: below the threshold
pKd [16, 28]: below the threshold
pKd [17, 28]: below the threshold
pKd [18, 28]: 3.88
pKd [19, 28]: below the threshold
pKd [20, 28]: 3.88
pKd [21, 28]: below the threshold
pKd [22, 28]: 4
pKd [23, 28]: 4.09
pKd [24, 28]: below the threshold
pKd [25, 28]: below the threshold
pKd [26, 28]: 4.23
Binder: HSATSVHTSV [MTMR1, Q13613]
